Test results from the RNAGym collection of RNA variant scans (doi:10.1021/acssynbio.7b00057).

B1: Pistol ribozyme (parent)
chain: GGGUCGUUGUUCCAUAAUCGCGUGGAUAUGGCACGCAAGUUUCUACCGGGCACCGUAAAUGUCCGACUGGAGCCGUUCGGGCGGCUAUAAACAGACCUCAGGCCCGAAGCGUGGCGGCACCUGCCGCCGGUGGUAAAAAAGAUCGGAAGAGCACACGUCU

Variants of: B1
Assay: aptazyme ON/OFF ratio, guanine; higher = stronger switching; co-transcriptional cleavage with and without guanine

Row | Variant | aptazyme ON/OFF ratio
1 | U7A G9C U10G U11G C12A C13A | 1.11
2 | U7A G9C U10G U11G C12A C13G | 1.06
3 | U7A G9C U10G U11G C12A C13U | 1.08
4 | U7A G9U U10C C12G | 1.29
5 | U7A G9U U10C C12U | 1.22
6 | U7A G9U U10C C12A | 1.14
7 | U7A G9U U10A U11C C12G C13G | 1.06
8 | U7A G9U U10A U11C C12G C13A | 1.09
9 | U7A G9U U10A U11C C12G C13U | 1.13
10 | U7A G9C U11A C13A | 1.02
11 | U7A G9C U11A C13U | 1.07
12 | U7A G9C U11A C13G | 1.08
13 | U7A G9C U10C C12G C13A | 1.03
14 | U7A G9C U10C C12G C13G | 1.07
15 | U7A G9C U10C C12G C13U | 1.05
16 | U7A G9C U10C U11C C12A C13G | 1.03
17 | U7A G9C U10C U11C C12A C13A | 1.02
18 | U7A G9C U10C U11C C12A C13U | 1.02
19 | U7A G9U U10C C12A C13A | 1.21
20 | U7A G9U U10C C12A C13U | 1.16
21 | U7A G9U U10C C12A C13G | 1.14

Row | Variant | aptazyme ON/OFF ratio
22 | U7A G9U U10A U11A C12A C13G | 1.14
23 | U7A G9U U10A U11A C12A C13A | 1.1
24 | U7A G9U U10A U11A C12A C13U | 1.3
25 | U7A G9C U10C U11A | 1.07
26 | U7A G9C U10C U11C | 0.989
27 | U7A G9C U10C U11G | 1.02
28 | U7A G9C U10C U11A C13A | 1.07
29 | U7A G9C U10C U11A C13U | 1.09
30 | U7A G9C U10C U11A C13G | 1.12
31 | U7A G9U U10C U11A C12A C13G | 1.15
32 | U7A G9U U10C U11A C12A C13A | 1.2
33 | U7A G9U U10C U11A C12A C13U | 1.21
34 | U7A G9C U10C U11A C12A C13A | 1.07
35 | U7A G9C U10C U11A C12A C13G | 1.06
36 | U7A G9C U10C U11A C12A C13U | 1.03
37 | U7A G9C U10C U11G C13U | 1.08
38 | U7A G9C U10C U11G C13A | 1.06
39 | U7A G9C U10C U11G C13G | 1.08
40 | U7A G9U U10A C12G C13G | 1.26
41 | U7A G9U U10A C12G C13U | 1.11
42 | U7A G9U U10A C12G C13A | 1.25

Row | Variant | aptazyme ON/OFF ratio
43 | U7A G9U | 1.86
44 | U7A G9C U10C C12U C13G | 1.01
45 | U7A G9C U10C C12U C13A | 1.04
46 | U7A G9C U10C C12U C13U | 1.06
47 | U7A G9C U11A C12U C13A | 1.1
48 | U7A G9C U11A C12U C13U | 1.16
49 | U7A G9C U11A C12U C13G | 1.07
50 | U7A G9C U11A C12G C13A | 1.04
51 | U7A G9C U11A C12G C13U | 1.08
52 | U7A G9C U11A C12G C13G | 1.08
53 | U7A G9C U10C U11G C12G C13G | 1.17
54 | U7A G9C U10C U11G C12G C13U | 1.05
55 | U7A G9C U10C U11G C12G C13A | 1.07
56 | U7A G9U U10C C12U C13G | 1.07
57 | U7A G9U U10C C12U C13U | 1.2
58 | U7A G9U U10C C12U C13A | 1.14
59 | U7A G9C U10A U11G C12U C13A | 1.03
60 | U7A G9C U10A U11G C12U C13G | 1.07
61 | U7A G9C U10A U11G C12U C13U | 1.16
62 | U7A G9C U10G U11C C12G C13G | 1.21
63 | U7A G9C U10G U11C C12G C13U | 1.17

Row | Variant | aptazyme ON/OFF ratio
64 | U7A G9C U10G U11C C12G C13A | 1.11
65 | U7A G9C U10A U11G C12G | 1.09
66 | U7A G9C U10A U11G C12A | 1.04
67 | U7A G9C U10A U11G C12U | 1.07
68 | U7A G9U U10A U11A C12U C13G | 1.15
69 | U7A G9U U10A U11A C12U C13A | 1.3
70 | U7A G9U U10A U11A C12U C13U | 1.06
71 | U7A G9C U10G C12A C13A | 1.08
72 | U7A G9C U10G C12A C13U | 1.09
73 | U7A G9C U10G C12A C13G | 1.09
74 | U7A G9U U10A C13U | 1.35
75 | U7A G9U U10A C13A | 1.08
76 | U7A G9U U10A C13G | 1.05
77 | U7A G9C U10G U11A C12A | 1.1
78 | U7A G9C U10G U11A C12U | 1.04
79 | U7A G9C U10G U11A C12G | 1.06
80 | U7A G9U U10A U11C C12G | 1.25
81 | U7A G9U U10A U11C C12A | 1.26
82 | U7A G9U U10A U11C C12U | 1.08
83 | U7A G9U C12G C13G | 1.3
84 | U7A G9U C12G C13A | 1.2
